Broadly, the Kd is the concentration at which binding is half-saturated.

Data on 1 substance can be found in article PMC7293038.

Experiment in all cases: BLI; biotinylated Avi-tag-ZIgE-SpyCatcher loaded on streptavidin Octet tips (2.5 ug/ml, 60 s); IgE as analyte in PBST with 30 mg/ml skimmed milk; 300 s association, 400 s dissociation; 1:1 binding model assuming only partial dissociation; mean of three IgE concentrations
Assay [1] deals with Avi-tag-ZIgE^33-SpyCatcher.
Assay [2] addresses Avi-tag-ZIgE^44-SpyCatcher.
Assay [3] deals with Avi-tag-ZIgE^wild-type-SpyCatcher.
The target of assay [4] is Avi-tag-ZIgE^consensus-SpyCatcher.

“IgE (native human monoclonal, Abcam ab65866) (antibody)”: the Kd amounted to 2.1 µM in assay [1], 4.8 µM in assay [2], 7.3 µM in assay [3] and 0.61 µM in assay [4].
